{"source": "patent CN113087789A", "key": {"[1]": {"biological_target": "M13KO7辅助噬菌体 (丝状噬菌体pVIII蛋白) (M13KO7 helper phage (filamentous phage)) (UniProt P69541)", "sequence (P69541 24-73)": "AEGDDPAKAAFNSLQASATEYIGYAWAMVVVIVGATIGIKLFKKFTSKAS", "assay": "indirect ELISA, plate coated with 1.0×10^9 pfu/mL M13KO7 helper phage, purified antibody (1.0 mg/mL stock)"}, "[2]": {"biological_target": "M13KO7辅助噬菌体 (丝状噬菌体pVIII蛋白) (M13KO7 helper phage (filamentous phage)) (UniProt P69541)", "assay": "indirect ELISA, plate coated with 1.0×10^9 pfu/mL M13KO7 helper phage, ascites antibody"}}}
{"binder": "丝状噬菌体pVIII蛋白单克隆抗体P8E4 (antibody, V domains shown) VH: QIQLQQSGAELARPGASVRLSCKRSGYTFTTYWLQWLKQRAGQGLEWIGAIYPGNGDTRYFPNFKGQATLTADRSSSTRYLQLSSLASESSAVYYCASLLRTDFAMDYRGQGTSVTVSS VL: DIVLTQSPASEAVSLGQRATISCRTSESVDTYAISFIHWYQQKPGWPPKLLIYRASNAESGIPARFAGSGSRPDFTLSIRPVEADDVATYYCQQSDKDPGSFGGGTKLEIK", "values": [{"measurement": "效价 (titer, purified antibody 1.0 mg/mL) (fold dilution)", "setting": "[1]", "result": 6400}, {"measurement": "效价 (titer, ascites) (fold dilution)", "setting": "[2]", "result": 102000}]}
